Among the data in patent publication US5750106 are neutralizing concentration (micro-neutralization assay) values, retold here.

The target in this test is gH glycoprotein of CMV (82,000 dalton component) (human cytomegalovirus (CMV), strain not stated).

B1: human monoclonal antibody SDZ MSL 109 (antibody, V domains shown)
VH: EEQVLESGGGLVKPGGSLRLSCAASGFTFSPYSVFWVRQAPGKGLEWVSSINSDSTYKYYADSVKGRFTISRDNAENSIFLQMNSLRAEDTAVYYCARDRSYYAFSSGSLSDYYYGLDVWGQG
VL: DIVMTQSPLSLSVTPGEPASISCRSSQSLLHTNGYNYLDWYVQKPGQSPQLLIYLASNRASGVPDRFSGSGSGTDFTLKISRVETEDVGVYYCMQALQIPRTFGQGTKVEIKR
As to B1, the neutralizing concentration (micro-neutralization assay) was 100 ng/mL.
